Reference: the RNAGym collection of RNA variant scans (doi:10.1101/gr.219683.116)

B1: mRNA-splicing (parent)
chain: AGUUGCUGCUGGGAGCUCCAGCACAGUGAAAUGGACAGAAGGGCAGAGCAA

Variants of: B1
Assay: exon inclusion enrichment index; higher = more inclusion; WT1 exon 5 minigene, HEK293

Variant | exon inclusion enrichment index
G5A C6U U7A G8U C9A G26U U27C | 0.536
G5A C6U U7A G8U C9A A30G A31G | 0.00768
G5A C6U U7A G8U C9A A30G A31C | 0.00117
G5A C6U U7A G8U C9A A30G A31U | 0.0123
G5A C6U U7A G8U C9A C18U C19G | 0.0036
G5A C6U U7A G8U C9A C18U C19U | 0.00085
G5A C6U U7A G8U C9A C18U C19A | 0.00119
G5A C6U U7A G8U C9A A35G | 0.017
G5A C6U U7A G8U C9A A35C | 0.00811
G5A C6U U7A G8U C9A A35U | 0.00487
G5A C6U U7A G8U C9A G41C G42A | 0.139
G5A C6U U7A G8U C9A G41C G42U | 0.445
G5A C6U U7A G8U C9A G41C G42C | 0.417
G5A C6U U7A G8U C9A C18U | 0.0307
G5A C6U U7A G8U C9A C18G | 0.0618
G5A C6U U7A G8U C9A C18A | 0.017
G5A C6U U7A G8U C9A A30C A31C | 0.126
G5A C6U U7A G8U C9A A30C A31G | 0.168
G5A C6U U7A G8U C9A A30C A31U | 0.0899
G5A C6U U7A G8U C9A C19G A20G | 0.0128
G5A C6U U7A G8U C9A C19G A20U | 0.0389
G5A C6U U7A G8U C9A C19G A20C | 0.0894
G5A C6U U7A G8U C9A A45C G46C | 0.0306
G5A C6U U7A G8U C9A A45C G46U | 0.0134

Variant | exon inclusion enrichment index
G5A C6U U7A G8U C9A A45C G46A | 0.0341
G5A C6U U7A G8U C9A A29U | 0.0147
G5A C6U U7A G8U C9A A29G | 0.164
G5A C6U U7A G8U C9A A29C | 0.0477
G5A C6U U7A G8U C9A A25G G26A | 0.36
G5A C6U U7A G8U C9A A25G G26U | 0.231
G5A C6U U7A G8U C9A A25G G26C | 0.493
G5A C6U U7A G8U C9A G11A | 0.00945
G5A C6U U7A G8U C9A G11C | 0.191
G5A C6U U7A G8U C9A G11U | 0.0798
G5A C6U U7A G8U C9A A25U G26A | 0.0732
G5A C6U U7A G8U C9A A25U G26U | 0.0803
G5A C6U U7A G8U C9A A25U G26C | 0.157
G5A C6U U7A G8U C9A G34A A35C | 0.0538
G5A C6U U7A G8U C9A G34A A35U | 0.00832
G5A C6U U7A G8U C9A G34A A35G | 0.00212
G5A C6U U7A G8U C9A A39U A40G | 0.0054
G5A C6U U7A G8U C9A A39U A40U | 0.0161
G5A C6U U7A G8U C9A A39U A40C | 0.142
G5A C6U U7A G8U C9A A40C G41U | 0.0189
G5A C6U U7A G8U C9A A40C G41C | 0.455
G5A C6U U7A G8U C9A A40C G41A | 0.00954
G5A C6U U7A G8U C9A A47G G48C | 0.0173
G5A C6U U7A G8U C9A A47G G48U | 0.00228

Variant | exon inclusion enrichment index
G5A C6U U7A G8U C9A A47G G48A | 0.0214
G5A C6U U7A G8U C9A G15U | 0.0601
G5A C6U U7A G8U C9A G15C | 0.156
G5A C6U U7A G8U C9A G15A | 0.0278
G5A C6U U7A G8U C9A A29U A30U | 0.00971
G5A C6U U7A G8U C9A A29U A30G | 0.0618
G5A C6U U7A G8U C9A A29U A30C | 0.0463
G5A C6U U7A G8U C9A G28A A29G | 0.00353
G5A C6U U7A G8U C9A G28A A29U | 0.00845
G5A C6U U7A G8U C9A G28A A29C | 0.0311
G5A C6U U7A G8U C9A C22U A23G | 0.0485
G5A C6U U7A G8U C9A C22U A23C | 0.0341
G5A C6U U7A G8U C9A C22U A23U | 0.0179
G5A C6U U7A G8U C9A A35G C36U | 0.00124
G5A C6U U7A G8U C9A A35G C36A | 0.0117
G5A C6U U7A G8U C9A A35G C36G | 0.00488
G5A C6U U7A G8U C9A A31C U32G | 0.0628
G5A C6U U7A G8U C9A A31C U32C | 0.363
G5A C6U U7A G8U C9A A31C U32A | 0.0278
G5A C6U U7A G8U C9A A31U U32A | 0.0012
G5A C6U U7A G8U C9A A31U U32G | 0.0286
G5A C6U U7A G8U C9A A31U U32C | 0.168
G5A C6U U7A G8U C9A A35C C36A | 0.0286
G5A C6U U7A G8U C9A A35C C36G | 0.0383

Variant | exon inclusion enrichment index
G5A C6U U7A G8U C9A A35C C36U | 0.00346
G5A C6U U7A G8U C9A G38U | 0.0207
G5A C6U U7A G8U C9A G38C | 0.0329
G5A C6U U7A G8U C9A G38A | 0.0251
G5A C6U U7A G8U C9A G33C G34A | 0.0386
G5A C6U U7A G8U C9A G33C G34U | 0.0325
G5A C6U U7A G8U C9A G33C G34C | 0.043
G5A C6U U7A G8U C9A C24G A25G | 0.0168
G5A C6U U7A G8U C9A C24G A25C | 0.392
G5A C6U U7A G8U C9A C24G A25U | 0.0695
G5A C6U U7A G8U C9A A31G | 0.12
G5A C6U U7A G8U C9A A31U | 0.0565
G5A C6U U7A G8U C9A A31C | 0.077
G5A C6U U7A G8U C9A C18A C19U | 0.00112
G5A C6U U7A G8U C9A C18A C19G | 0.00128
G5A C6U U7A G8U C9A C18A C19A | 0.00553
G5A C6U U7A G8U C9A C36A A37C | 0.0847
G5A C6U U7A G8U C9A C36A A37G | 0.0248
G5A C6U U7A G8U C9A C36A A37U | 0.0158
G5A C6U U7A G8U C9A G12C G13U | 0.000527
G5A C6U U7A G8U C9A G12C G13C | 0.0141
G5A C6U U7A G8U C9A G12C G13A | 0.0284
G5A C6U U7A G8U C9A G15C C16U | 0.0353
G5A C6U U7A G8U C9A G15C C16A | 0.0446

Variant | exon inclusion enrichment index
G5A C6U U7A G8U C9A G15C C16G | 0.0723
G5A C6U U7A G8U C9A G38A A39U | 0.00385
G5A C6U U7A G8U C9A G38A A39G | 0.0704
G5A C6U U7A G8U C9A G38A A39C | 0.0573
G5A C6U U7A G8U C9A A45U | 0.132
G5A C6U U7A G8U C9A A45G | 0.212
G5A C6U U7A G8U C9A A45C | 0.106
G5A C6U U7A G8U C9A A30C | 0.0649
G5A C6U U7A G8U C9A A30U | 0.0249
G5A C6U U7A G8U C9A A30G | 0.0451
G5A C6U U7A G8U C9A G28A | 0.0134
G5A C6U U7A G8U C9A G28U | 0.0124
G5A C6U U7A G8U C9A G28C | 0.0466
G5A C6U U7A G8U C9A A31G U32C | 0.424
G5A C6U U7A G8U C9A A31G U32A | 0.855
G5A C6U U7A G8U C9A A31G U32G | 0.0411
G5A C6U U7A G8U C9A C44G A45U | 0.0272
G5A C6U U7A G8U C9A C44G A45C | 0.138
G5A C6U U7A G8U C9A C44G A45G | 0.0089
G5A C6U U7A G8U C9A C18G C19G | 0.0648
G5A C6U U7A G8U C9A C18G C19U | 0.00519
G5A C6U U7A G8U C9A C18G C19A | 0.0894
G5A C6U U7A G8U C9A G28C A29G | 0.178
G5A C6U U7A G8U C9A G28C A29U | 0.0282

Variant | exon inclusion enrichment index
G5A C6U U7A G8U C9A G28C A29C | 0.0748
G5A C6U U7A G8U C9A C44U A45U | 0.0242
G5A C6U U7A G8U C9A C44U A45G | 0.0383
G5A C6U U7A G8U C9A C44U A45C | 0.1
G5A C6U U7A G8U C9A G26C U27G | 0.442
G5A C6U U7A G8U C9A G26C U27A | 0.0751
G5A C6U U7A G8U C9A G26C U27C | 0.489
G5A C6U U7A G8U C9A G33U G34U | 0.0031
G5A C6U U7A G8U C9A G33U G34A | 0.0131
G5A C6U U7A G8U C9A G33U G34C | 0.00527
G5A C6U U7A G8U C9A A45G G46A | 0.447
G5A C6U U7A G8U C9A A45G G46C | 0.131
G5A C6U U7A G8U C9A A45G G46U | 0.0592
G5A C6U U7A G8U C9A A39G | 0.00842
G5A C6U U7A G8U C9A A39U | 0.0074
G5A C6U U7A G8U C9A A39C | 0.0192
G5A C6U U7A G8U C9A A23U C24U | 0.000794
G5A C6U U7A G8U C9A C44A A45U | 0.189
G5A C6U U7A G8U C9A C44A A45G | 0.0995
G5A C6U U7A G8U C9A C44A A45C | 0.248
G5A C6U U7A G8U C9A C19U A20U | 0.00982
G5A C6U U7A G8U C9A C19U A20C | 0.078
G5A C6U U7A G8U C9A C19U A20G | 0.00852
G5A C6U U7A G8U C9A A40G G41C | 0.455

Variant | exon inclusion enrichment index
G5A C6U U7A G8U C9A A40G G41A | 0.0181
G5A C6U U7A G8U C9A A40G G41U | 0.0544
G5A C6U U7A G8U C9A C24A | 0.0667
G5A C6U U7A G8U C9A C24U | 0.00831
G5A C6U U7A G8U C9A C24G | 0.0851
G5A C6U U7A G8U C9A A25G | 0.293
G5A C6U U7A G8U C9A A25C | 0.501
G5A C6U U7A G8U C9A A25U | 0.138
G5A C6U U7A G8U C9A G15A C16G | 0.0191
G5A C6U U7A G8U C9A G15A C16A | 0.0139
G5A C6U U7A G8U C9A G15A C16U | 0.0138
G5A C6U U7A G8U C9A G12A G13C | 0.0112
G5A C6U U7A G8U C9A G12A G13A | 0.027
G5A C6U U7A G8U C9A G12A G13U | 0.000604
G5A C6U U7A G8U C9A G34U A35U | 0.007
G5A C6U U7A G8U C9A G34U A35G | 0.014
G5A C6U U7A G8U C9A G34U A35C | 0.0139
G5A C6U U7A G8U C9A C19A A20U | 0.0348
G5A C6U U7A G8U C9A C19A A20G | 0.00271
G5A C6U U7A G8U C9A C19A A20C | 0.0154
G5A C6U U7A G8U C9A C22G A23C | 0.0334
G5A C6U U7A G8U C9A C22G A23U | 0.00095
G5A C6U U7A G8U C9A C22G A23G | 0.0166
